Experimental findings from publication PMC10184575, “Development of an Anti-canine PD-L1 Antibody and Caninized PD-L1 Mouse Model as Translational Research Tools for the Study of Immunotherapy in Humans” (Cancer Research Communications, 2023) are described below.

The target of this test is T1, 6X His-tagged extracellular domain of canine PD-L1 (canine, UniProt E2RKZ5).
T1 construct: canine PD-L1 (CD274), extracellular domain; also called cPD-L1-His; His-tagged cPD-L1 protein; source: ExpiCHO cell system, purified (Ni-NTA agarose)
T1 sequence (E2RKZ5 entry or part of it): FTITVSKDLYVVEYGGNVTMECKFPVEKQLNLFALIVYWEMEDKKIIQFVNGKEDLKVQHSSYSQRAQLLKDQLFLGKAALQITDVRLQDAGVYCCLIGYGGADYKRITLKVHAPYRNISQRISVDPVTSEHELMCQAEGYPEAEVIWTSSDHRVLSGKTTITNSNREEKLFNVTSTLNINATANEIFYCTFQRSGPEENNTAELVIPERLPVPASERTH
Briefly: BLI; Octet RED384; His-tagged cPD-L1 loaded on NTA biosensor at 200 nmol/L; 12C10E4 antibody at 50, 100, 200 nmol/L in kinetic buffer. Conditions: both partners purified. (In general: In BLI a coated tip is dipped into the sample, and binding shifts an interference pattern.)

B1: 12C10E4 chimeric antibody (12C10E4-cIgG; murine variable regions, canine IgG2 and canine kappa constant regions) (antibody, V domains shown)
VH: QVQLKQSGPGLVQPSQSLSITCTISGFSLTSFGVHWVRQSPGKGLEWLGVIWSGGSTDYNAAFTSRLSINKDNSKSQVFFKMNSLQADDTAIYYCARGGGPDWYFDVWGTGTTVTVSS
VL: DIVLTQSPASLAVSLGQRATISCRASESVEYYGTSLMQWYQQKPGQPPKLLIFAASNVKSGVPARFSGSGSGTDFSLNIHPVEEDDIAMYFCQQSGKVPHTFGGGTKLEIK
notes: VH of the mouse hybridoma 12C10E4; canine IgG2 heavy constant chain (called equivalent to human IgG1); VL of the mouse hybridoma 12C10E4; canine kappa light constant chain; also called 12C chimeric antibody; 12C cPD-L1 chimera antibody; source: ExpiCHO-S, transfected, purified (protein A agarose)
The molecule B1 gave a Kd of 8.6 nM.

As usually defined, the Kd is the free concentration of one partner at which half of the binding sites on the other are occupied at equilibrium, for simple one-to-one binding.
